Changes are numbered by the printed parent chain. Numbers in names are those of the source.
T1: mIL10RalphaFc (mouse, UniProt Q61727)
T1 chain: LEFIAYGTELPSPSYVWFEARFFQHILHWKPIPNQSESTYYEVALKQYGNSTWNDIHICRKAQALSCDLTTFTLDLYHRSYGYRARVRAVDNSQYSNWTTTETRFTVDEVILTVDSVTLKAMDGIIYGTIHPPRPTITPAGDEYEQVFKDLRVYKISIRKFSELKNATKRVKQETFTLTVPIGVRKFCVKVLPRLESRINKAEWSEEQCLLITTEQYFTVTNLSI

T2: hIL10RalphaFc (human, UniProt Q13651)
T2 chain: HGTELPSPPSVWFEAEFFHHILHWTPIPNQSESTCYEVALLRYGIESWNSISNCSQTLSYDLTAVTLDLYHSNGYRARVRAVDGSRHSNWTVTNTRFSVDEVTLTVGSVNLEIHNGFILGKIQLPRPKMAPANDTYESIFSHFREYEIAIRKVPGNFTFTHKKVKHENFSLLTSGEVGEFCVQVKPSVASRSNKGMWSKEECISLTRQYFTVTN

B1: mIL10 WT (protein)
chain: SRGQYSREDNNCTHFPVGQSHMLLELRTAFSQVKTFFQTKDQLDNILLTDSLMQDFKGYLGCQALSEMIQFYLVEVMPQAEKHGPEIKEHLNSLGEKLKTLRMRLRRCHRFLPCENKSKAVEQVKSDFNKLQDQGVYKAMNEFDIFINCIEAYMMIKMKS
B2: mIL10 T100L (protein)
chain: B1 chain with T100L
B3: WC163_AA (mIL10 WT fused) (protein)
chain: GNCTHFPVGQSHMLLELRTAFSQVKTFFQTKDQLDNILLTDSLMQDFKGYLGCQALSEMIQFYLVEVMPQAEKHGPEIKEHLNSLGEKLKTLRMRLRRCHRFLPCENKSKAVEQVKSDFNKLQDQGVYKAMNEFDIFINCIEAYMMIKMKSSRGQYSREDNQYSREDNSCTHFPVGQSHMLLELRTAFSQVKTFFQTKDQLDNILLTDSLMQDFKGYLGCQALSEMIQFYLVEVMPQAEKHGPEIKEHLNSLGEKLKTLRMRLRRCHRFLPCENKSKAVEQVKSDFNKLQDQGVYKAMNEFDIFINCIEAYMMIKMKS
B4: SS0051_AA (mIL10 T100L fused) (protein)
chain: B3 chain with T91L, T258L
B5: h_SS0053_AA (hIL10 T100L fused) (protein)
chain: SPGQGTQSENSCTHFPGNLPNMLRDLRDAFSRVKTFFQMKDQLDNLLLKESLLEDFKGYLGCQALSEMIQFYLEEVMPQAENQDPDIKAHVNSLGENLKLLRLRLRRCHRFLPCENKSKAVEQVKNAFNKLQEKGIYKAMSEFDIFINYIEAYMTMKIRNSPGQGTQSENSCTHFPGNLPNMLRDLRDAFSRVKTFFQMKDQLDNLLLKESLLEDFKGYLGCQALSEMIQFYLEEVMPQAENQDPDIKAHVNSLGENLKLLRLRLRRCHRFLPCENKSKAVEQVKNAFNKLQEKGIYKAMSEFDIFINYIEAYMTMKIRNGGSHHHHHHHH
B6: hIL10 T100L (protein)
chain: SPGQGTQSENSCTHFPGNLPNMLRDLRDAFSRVKTFFQMKDQLDNLLLKESLLEDFKGYLGCQALSEMIQFYLEEVMPQAENQDPDIKAHVNSLGENLKLLRLRLRRCHRFLPCENKSKAVEQVKNAFNKLQEKGIYKAMSEFDIFINYIEAYMTMKIRN
B7: hIL10 WT (protein)
chain: B6 chain with L100T
B8: h_SS0052_AA (hIL10 WT fused) (protein)
chain: SPGQGTQSENSCTHFPGNLPNMLRDLRDAFSRVKTFFQMKDQLDNLLLKESLLEDFKGYLGCQALSEMIQFYLEEVMPQAENQDPDIKAHVNSLGENLKTLRLRLRRCHRFLPCENKSKAVEQVKNAFNKLQEKGIYKAMSEFDIFINYIEAYMTMKIRNSPGQGTQSENSCTHFPGNLPNMLRDLRDAFSRVKTFFQMKDQLDNLLLKESLLEDFKGYLGCQALSEMIQFYLEEVMPQAENQDPDIKAHVNSLGENLKTLRLRLRRCHRFLPCENKSKAVEQVKNAFNKLQEKGIYKAMSEFDIFINYIEAYMTMKIRN

Target: T1, mIL10RalphaFc
Assay: SPR

Row | Kd | Binder
1 | 0.81 nM | B1
2 | 1.92 nM | B2
3 | 0.86 nM | B3
4 | 0.73 nM | B4

Target: T2, hIL10RalphaFc
Assay: SPR

Row | Kd | Binder
5 | 0.07 nM | B5
6 | 0.26 nM | B6
7 | 0.06 nM | B7
8 | 0.11 nM | B8
